Test results taken from publication PMC6555819, “Comprehensive study of nuclear receptor DNA binding provides a revised framework for understanding receptor specificity”.

B1: NRC3_wobSeed101_DR4_G20T_o1 (dsDNA)
DNA 1: GCCCTTACGGGTCACTCCATGTTATAGCATCGGAGTGCGATTGACAGCGTAGAATGAAGG
DNA 2: CCTTCATTCTACGCTGTCAATCGCACTCCGATGCTATAACATGGAGTGACCCGTAAGGGC
B2: NRC3_wobSeed46_DR1_T22G_o1 (dsDNA)
DNA 1: GCTTACCAAGGTGAAAGGTCGGTGATGCACGCCTTGGCGATTGACAGCGTAGAATGAAGG
DNA 2: CCTTCATTCTACGCTGTCAATCGCCAAGGCGTGCATCACCGACCTTTCACCTTGGTAAGC
B3: NRC3_wobSeed36_DR1_A26G_o1 (dsDNA)
DNA 1: GCCCGACTGGGGCAAAGGTTACCATGCTCAGTACGAGCGATTGACAGCGTAGAATGAAGG
DNA 2: CCTTCATTCTACGCTGTCAATCGCTCGTACTGAGCATGGTAACCTTTGCCCCAGTCGGGC
B4: NRC3_wobSeed99_DR4_G10T_o1 (dsDNA)
DNA 1: GCTCTCGGATGACACGAAAGGTCAGAGCTCGACATCGCGATTGACAGCGTAGAATGAAGG
DNA 2: CCTTCATTCTACGCTGTCAATCGCGATGTCGAGCTCTGACCTTTCGTGTCATCCGAGAGC
B5: NRC3_wobSeed21_DR0_T18C_o1 (dsDNA)
DNA 1: GCCGTCAAAGTTCAAGGCAACGTAACAGAAAGCAGCGCGATTGACAGCGTAGAATGAAGG
DNA 2: CCTTCATTCTACGCTGTCAATCGCGCTGCTTTCTGTTACGTTGCCTTGAACTTTGACGGC
B6: NRC3_wobSeed124_DR5_T16A_o1 (dsDNA)
DNA 1: GCCCTACTGGGCCATACAGAGGTCATTGATCATATGGCGATTGACAGCGTAGAATGAAGG
DNA 2: CCTTCATTCTACGCTGTCAATCGCCATATGATCAATGACCTCTGTATGGCCCAGTAGGGC
B7: NRC3_wobSeed124_DR5_T5C_o1 (dsDNA)
DNA 1: GCCCCACTGGGCCATTCAGAGGTCATTGATCATATGGCGATTGACAGCGTAGAATGAAGG
DNA 2: CCTTCATTCTACGCTGTCAATCGCCATATGATCAATGACCTCTGAATGGCCCAGTGGGGC
B8: NRC3_wobSeed124_DR5_A6T_o1 (dsDNA)
DNA 1: GCCCTTCTGGGCCATTCAGAGGTCATTGATCATATGGCGATTGACAGCGTAGAATGAAGG
DNA 2: CCTTCATTCTACGCTGTCAATCGCCATATGATCAATGACCTCTGAATGGCCCAGAAGGGC
B9: NRC3_wobSeed73_DR3_T21G_o1 (dsDNA)
DNA 1: GCCAAACTAGGTCACAGAGGGCAAAGTCCGTGCGTAGCGATTGACAGCGTAGAATGAAGG
DNA 2: CCTTCATTCTACGCTGTCAATCGCTACGCACGGACTTTGCCCTCTGTGACCTAGTTTGGC
B10: NRC3_wobSeed98_DR4_G15C_o1 (dsDNA)
DNA 1: GCACTAGTTGGTCACCTGAGGTCACACACAATTCGGGCGATTGACAGCGTAGAATGAAGG
DNA 2: CCTTCATTCTACGCTGTCAATCGCCCGAATTGTGTGTGACCTCAGGTGACCAACTAGTGC
B11: NRC3_wobSeed74_DR3_A14G_o1 (dsDNA)
DNA 1: GCTCTAGTTGGTCGCGGAGGTCACACACGACGGGTAGCGATTGACAGCGTAGAATGAAGG
DNA 2: CCTTCATTCTACGCTGTCAATCGCTACCCGTCGTGTGTGACCTCCGCGACCAACTAGAGC
B12: NRC3_wobSeed50_DR2_T12G_o1 (dsDNA)
DNA 1: GCCCTAGTTGGGCAGGAGGTCACACACCGGATATGAGCGATTGACAGCGTAGAATGAAGG
DNA 2: CCTTCATTCTACGCTGTCAATCGCTCATATCCGGTGTGTGACCTCCTGCCCAACTAGGGC
B13: NRC3_wobSeed65_DR2_T8C_o1 (dsDNA)
DNA 1: GCATATGCAGGTTATCGGGTCATTCAGTTTGCGCATGCGATTGACAGCGTAGAATGAAGG
DNA 2: CCTTCATTCTACGCTGTCAATCGCATGCGCAAACTGAATGACCCGATAACCTGCATATGC

What follows are binders tested against RXRa (Homo sapiens, UniProt P19793) (assay: no ligand; PBM; 180 nM; PBS pH 7.4, 2% milk, 0.02% Triton X-100, 1 mM DTT, BSA, 0.4 mg/ml salmon testes DNA). Settings: tags: His cleaved; chain copies: 2; label: surface-attached array probe.
Sequence of RXRa (P19793 whole entry): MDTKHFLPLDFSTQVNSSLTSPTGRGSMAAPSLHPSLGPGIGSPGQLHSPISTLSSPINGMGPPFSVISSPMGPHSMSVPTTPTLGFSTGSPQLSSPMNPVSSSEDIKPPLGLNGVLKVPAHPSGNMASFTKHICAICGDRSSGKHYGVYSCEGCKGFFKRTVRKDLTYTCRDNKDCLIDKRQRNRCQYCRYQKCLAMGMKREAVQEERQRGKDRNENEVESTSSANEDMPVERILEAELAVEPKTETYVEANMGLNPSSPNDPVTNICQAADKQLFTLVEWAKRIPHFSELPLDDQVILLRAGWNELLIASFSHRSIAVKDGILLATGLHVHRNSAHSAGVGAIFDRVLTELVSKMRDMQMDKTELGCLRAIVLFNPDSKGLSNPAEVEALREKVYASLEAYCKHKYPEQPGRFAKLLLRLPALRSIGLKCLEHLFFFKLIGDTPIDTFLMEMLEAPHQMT

Binder | binding signal
B1 | 4.24 PBM z-score against 500 random probes
B2 | 3.86 PBM z-score against 500 random probes
B3 | 3.81 PBM z-score against 500 random probes
B4 | 4.05 PBM z-score against 500 random probes
B5 | 3.96 PBM z-score against 500 random probes
B6 | 4.2 PBM z-score against 500 random probes
B7 | 3.75 PBM z-score against 500 random probes
B8 | 3.71 PBM z-score against 500 random probes
B9 | 4.01 PBM z-score against 500 random probes
B10 | 4.28 PBM z-score against 500 random probes
B11 | 4.16 PBM z-score against 500 random probes
B12 | 3.92 PBM z-score against 500 random probes
B13 | 3.65 PBM z-score against 500 random probes
